Experimental data reported in US20200017552A1.
Like-named read-outs stand apart in the source and are kept apart here.

Columns and labels:
[1] = biological target: HA of Ft. Monmouth influenza virus (on virions) (influenza virus strain Ft. Monmouth); test: cell-based or functional assay
[2] = biological target: HA of Ft. Monmouth influenza virus (on virions) (influenza virus strain Ft. Monmouth); test: cell-based or functional assay; remark: listed apart in the source

Row | Binder | EC50 values for inhibition of viral replication in vitro [1] | EC50 values for inhibition of viral replication in vitro [2]
1 | CIEQSFTTLFACQTAAEIWRAFGYTVKIMVDNGNCRLHVC (designed binder, modifications not checked) [HB1.6928.2.3] | 0.02 ng/mL | 
2 | TIEQSFTTLFAAQTAAEIWRAFGYTVKIMQDNGNWRLHVT (designed binder) [CS15990 A13_r31_TAWQT Thr-40-Thr] |  | 2 ng/mL
